Measurements: paper PMC12136191, “Structural basis for mTORC1 regulation by the CASTOR1-GATOR2 complex” (Research Square, 2025)

B1: CASTOR1 S111A/D304A (apo-locked mutant) (natural protein)
chain: MELHILEHRVRVLSVARPGLWLYTHPLIKLLFLPRRSRCKFFSLTETPEDYTLMVDEEGFKELPPSEFLQVAEATWLVLNVSSHSGAAVQAAGVTKIARSVIAPLAEHHVAVLMLSTYQTDFILVREQDLSVVIHTLAQEFDIYREVGGEPVPVTRDDSSNGFPRTQHGPSPTVHPIQSPQNRFCVLTLDPETLPAIATTLIDVLFYSHSTPKEAASSSPEPSSITFFAFSLIEGYISIVMDAETQKKFPSDLLLTSSSGELWRMVRIGGQPLGFDECGIVAQIAGPLAAADISAYYISTFNFAHALVPEDGIGSVIEVLQRRQEGLAS
notes: CASTOR1 (arginine sensor) with S111A and D304A; codon optimized synthetic DNA; Homodimer in the structure; also called CASTOR1^apo; 6X-His-CASTOR1^apo; source: E. coli BL21(DE3), pET-28a+, purified (Ni-NTA, Superdex 200 gel filtration)
B2: MIOS, subunit within purified GATOR2 (natural protein)
chain: MSGTKPDILWAPHHVDRFVVCDSELSLYHVESTVNSELKAGSLRLSEDSAATLLSINSDTPYMKCVAWYLNYDPECLLAVGQANGRVVLTSLGQDHNSKFKDLIGKEFVPKHARQCNTLAWNPLDSNWLAAGLDKHRADFSVLIWDICSKYTPDIVPMEKVKLSAGETETTLLVTKPLYELGQNDACLSLCWLPRDQKLLLAGMHRNLAIFDLRNTSQKMFVNTKAVQGVTVDPYFHDRVASFYEGQVAIWDLRKFEKPVLTLTEQPKPLTKVAWCPTRTGLLATLTRDSNIIRLYDMQHTPTPIGDETEPTIIERSVQPCDNYIASFAWHPTSQNRMIVVTPNRTMSDFTVFERISLAWSPITSLMWACGRHLYECTEEENDNSLEKDIATKMRLRALSRYGLDTEQVWRNHILAGNEDPQLKSLWYTLHFMKQYTEDMDQKSPGNKGSLVYAGIKSIVKSSLGMVESSRHNWSGLDKQSDIQNLNEERILALQLCGWIKKGTDVDVGPFLNSLVQEGEWERAAAVALFNLDIRRAIQILNEGASSEKGDLNLNVVAMALSGYTDEKNSLWREMCSTLRLQLNNPYLCVMFAFLTSETGSYDGVLYENKVAVRDRVAFACKFLSDTQLNRYIEKLTNEMKEAGNLEGILLTGLTKDGVDLMESYVDRTGDVQTASYCMLQGSPLDVLKDERVQYWIENYRNLLDAWRFWHKRAEFDIHRSKLDPSSKPLAQVFVSCNFCGKSISYSCSAVPHQGRGFSQYGVSGSPTKSKVTSCPGCRKPLPRCALCLINMGTPVSSCPGGTKSDEKVDLSKDKKLAQFNNWFTWCHNCRHGGHAGHMLSWFRDHAECPVSACTCKCMQLDTTGNLVPAETVQP
notes: MIOS, subunit of GATOR2; codon optimized synthetic DNA; The MIOS chain of m1, written alone for the pairs that touch in the structure; also called front face MIOS; source: HEK293-GNTI cells, co-expressed with the other GATOR2 subunits, purified as part of GATOR2

Columns and labels:
[1] = biological target: B2; assay: cryo-EM structure; purified GATOR2 at 0.45 mg/mL with 3-fold molar excess of CASTOR1^apo, 45 minutes on ice, frozen on grids; no Arg; Titan Krios; details: both partners purified
[2] = biological target: the molecule itself; assay: as above

Binder	binding result [1]	binding result [2]
B1	binds	binds
B2	–	binds
